Results taken from publication PMC2582146 (Biochemistry, 2008).
No end group written: not given here.

T1: NHERF1 PDZ1 domain (human, UniProt O14745 1-139)
T1 sequence (looked up): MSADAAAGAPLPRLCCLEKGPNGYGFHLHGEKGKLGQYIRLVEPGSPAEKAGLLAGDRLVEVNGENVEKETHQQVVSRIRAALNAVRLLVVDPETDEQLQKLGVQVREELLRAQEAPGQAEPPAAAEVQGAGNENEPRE

B1: C-CFTR10 (peptide)
peptide: CTEEEVQDTRL
B2: CFTR C-terminal undecamer peptide on the HUMLIB array (peptide, UniProt P13569 1470-1480, looked up)
peptide: ETEEEVQDTRL
B3: SSR5 C-terminal undecamer peptide on the HUMLIB array (peptide, UniProt P35346 354-364, looked up)
peptide: AANGLMQTSKL
B4: CFTR10 (peptide)
peptide: TEEEVQDTRL
B5: C-SSR5_(10) (peptide)
peptide: CANGLMQTSKL
B6: C-β1AR10 (peptide)
peptide: CRPGFASESKV
B7: C-ClC3B10 (peptide)
peptide: CEVYLLNSTTL
B8: C-GluRδ1_(10) (peptide)
peptide: CALDTSHGTSI
B9: C-GluRδ2_(10) (peptide)
peptide: CGNDPDRGTSI
B10: C-NLG10 (peptide)
peptide: CHPHSHSTTRV
B11: C-SDK2_(10) (peptide)
peptide: CAPIAGFSSFV
B12: C-NLG2_(10) (peptide)
peptide: CLPHPHSTTRV
B13: C-RTKN10 (peptide)
peptide: CQPRTWLQSPV
B14: C-NR2A10 (peptide)
peptide: CKKMPSIESDV
B15: C-βCAT10 (peptide)
peptide: CNQLAWFDTDL
B16: C-AIC3A10 (peptide)
peptide: CHRTCYLVTQL
B17: C-CL1_(10) (peptide)
peptide: CDGQMQLVTSL
B18: C-FRZ8_(10) (peptide)
peptide: CYPKQMPLSQV
B19: C-FRZ5_(10) (peptide)
peptide: CYHKQVSLSHV
B20: CGG-CFTR16 (peptide)
peptide: CGGAALKEETEEEVQDTRL
B21: C-CFTR6 (peptide)
peptide: CVQDTRL
B22: C-CFTR4 (peptide)
peptide: CDTRL
B23: F*-CFTR10 (peptide)
peptide: fluorescein-TEEEVQDTRL
B24: F*GG-CFTR16 (peptide)
peptide: fluorescein-GGAALKEETEEEVQDTRL
B25: F*C-CFTR4 (peptide)
peptide: C(fluorescein‑5‑maleimide)DTRL

Each binder was assayed against T1, NHERF1 PDZ1 domain (assay: SPR).
In the case of B1, the Kd is reported as 0.0103 µM.

Each binder was assayed against T2, CAL PDZ domain (UniProt Q9HD26-2 278-362) (assay: peptide or protein array).
B2: binds.
B3: binds.

The binders below were run against T1, NHERF1 PDZ1 domain (assay: ITC).
With B4 the Kd was 0.787 ± 0.055 µM, the dH was -10.4 ± 0.19 kcal/mol and the “dH extrapolated to 37 °C” value was -12.2 kcal/mol.

These binders were tested against T2, CAL PDZ domain (assay: fluorescence polarisation).
Work on B5 yielded a Ki of 22.6 ± 7.1 µM.
Work on B6 yielded a Ki of 410 ± 190 µM.
With B7 the Ki was 110 ± 60 µM.

Molecular target: T2, CAL PDZ domain
Assay: fluorescence polarisation
Remark: another data set of the same source
In the case of B8, the Ki is reported as 875 ± 56 µM.
B9 showed a Ki of 560 ± 130 µM.
B10 gave a Ki of 158 ± 19 µM.
Binder B11 has a Ki of 150 ± 20 µM.
B12 gave a Ki of 107 ± 1.7 µM.
B13 showed a Ki of 229 ± 16 µM.
For B14, the Ki was 1940 ± 920 µM.
Binder B15 has a Ki of 1110 ± 480 µM.
Binder B16 has a Ki of 42.2 ± 4.2 µM.
In the case of B17, the Ki is reported as 88.3 ± 6.3 µM.
B5 was tested, and the Ki was 37.6 ± 4 µM.
B1 gave a Ki of 690 ± 120 µM.
B6 gave a Ki of 510 ± 110 µM.
Binder B18 has a Ki of 47 ± 10 µM.
In the case of B7, the Ki is reported as 93 ± 8.5 µM.
In the case of B19, the Ki is reported as 451 ± 42 µM.

What follows are binders tested against T1, NHERF1 PDZ1 domain (assay: fluorescence polarisation).
B20 showed a Ki of 0.209 ± 0.064 µM.
With B21 the Ki was 0.67 ± 0.097 µM.
In the case of B22, the Ki is reported as 1.52 ± 0.078 µM.
Binder B1 has a Ki of 0.597 ± 0.077 µM.

Molecular target: T1, NHERF1 PDZ1 domain
Assay: fluorescence polarisation
Remark: another data set of the same source
B23 gave a Kd of 0.279 ± 0.021 µM.
B24 gave a Kd of 0.116 ± 0.01 µM.
B25 showed a Kd of 0.949 ± 0.089 µM.

Molecular target: T1, NHERF1 PDZ1 domain
Assay: fluorescence polarisation
Remark: another data set of the same source
Work on B22 yielded a Ki of 0.949 µM.

Molecular target: T1, NHERF1 PDZ1 domain
Assay: ITC
Remark: another data set of the same source
In the case of B4, the dH is reported as -9.11 kcal/mol.
